From PMC10649158

Biological target: Canavalia villosa seed lectin (Cvill) (Canavalia villosa)
Experiment: crystal structure; Cvill with alpha-methyl-D-mannopyranoside; 17.5% PEG1000, 0.1 M potassium phosphate citrate pH 4.2, 200 mM lithium sulfate, room temperature; space group I222, one monomer per asymmetric unit; tetramer formed by the crystal's 222 symmetry, dimers and tetramers predicted with PISA

## Canavalia villosa seed lectin (Cvill) (natural protein)
  stoichiometry N: 4
